Laboratory results reported in paper PMC11242853, “The Antimicrobial Activity of Human Defensins at Physiological Non-Permeabilizing Concentrations Is Caused by the Inhibition of the Plasma Membrane H^+-ATPases” (International Journal of Molecular Sciences, 2024).

Key:
[1] = design: method as in 19 sources, ref 24; PMID 3290255; doi:10.1172/JCI113527; 24. Lehrer R.I. Ganz T. Szklarek D. Selsted M.E. Modulation of the in vitro candidacidal activity of human neutrophil defensins by target cell metabolism and divalent cations J. Clin. Invest. 1988 81 || [47]; PMID 11083633; doi:10.1128/AAC.44.12.3310-3316.2000; 47. Edgerton M. Koshlukova S.E. Araujo M.W. Patel R.C. Dong J. Bruenn J.A. Salivary histatin 5 and human neutrophil defensin 1 kill Candida albicans via shared pathways Antimicrob. Agents Chemother. 2 ||| ref 20 = [20]; PMID 17074797; doi:10.1128/AAC.00478-06; 20. Vylkova S. Nayyar N. Li W. Edgerton M. Human beta-defensins kill Candida albicans in an energy-dependent and salt-sensitive manner without causing membrane disruption Antimicrob. Agents Chemother. ||| ref 24, 62 (HNP-1); 62, 63 (HNP-4); 20 (hBD-2); 12, 20 (hBD-3); 34, 35, 64 cidal and 65, 66 static (lactoferrin) ||| ref 26 (HNP-1); 12 (HNP-4); 11 (hBD-2, hBD-3); 43, 67 (lactoferrin) ||| ref 14 (HNP-1); 23 (HNP-4); Yes 11, 13 / No 20 (hBD-2); No 20 / Yes 11 (hBD-3); 31, 34, 42 (lactoferrin) ||| ...; conditions: Table 2, cited from earlier work
C. albicans cells = test: Extracellular potassium measurement (K+-efflux, ICP-MS); format: cell-based, Candida albicans; conditions: peptides at NPIC / microbicidal concentrations; 10^7 cells/mL, 90 min at 37 °C; steady state compared with maximum intracellular K+ of untreated cells
Procedure: Potassium measurements were performed via inductively coupled plasma mass spectrometry using an Agilent 7700x ICP-MS (Agilent Technologies, Santa Clara, CA, USA). C. albicans cells were cultured in SDB for 16–20 h at 30 °C. The cells were then subcultured in the same media to the mid-logarithmic growth phase and rapidly washed in sterile, deionized, double-distilled water. The cells (10^7 cells/mL) were immediately incubated with the peptides (NPIC) for 90 min at 37 °C. The tubes were centrifuged at 1100× g for 10 min and the supernatants were collected and stored at 4 °C until analysis. The percentage of cytosolic potassium released from cell suspensions treated with nystatin (50 μM) was determined in positive control assays. Total cellular K^+-content (100% value) was measured in the supernatant of cell suspensions previously treated with 0.5% (v/v) HClO4 alone, heated for 1 h at 95 °C, and centrifuged to remove cell debris. Results are expressed as the percentage (means ± SD) of K^+-release relative to the total cellular K^+-content from duplicates of at least three independent assays.

Pma1p H^+-ATPase = conditions: Table 2; no reference given
Procedure: A whole-cell proton transport assay was used to evaluate the possible inhibition of the fungal Pma1p H^+-ATPase by defensins.
To measure proton pumping from Pma1p H^+-ATPase activity, a glucose-induced acid extrusion assay was performed as previously described with modifications. Briefly, cultures of C. albicans cells were grown to mid-log phase in SDB medium and washed twice in 100 mM Tris-HCl (pH 8.0). The cells were then resuspended in 50 mM KCl and maintained for 18 h at 4 °C to reduce metabolic activity to a minimum (starvation conditions). To determine external acidification, starved cells (approximately 10^7 cells/mL) were incubated for 15 min at 37 °C in the presence or absence of the defensins (2 x NPIC). Cells incubated with 20 µM human lactoferrin or 0.5 µM BM2 peptide were used as positive controls. The initial pH of the cell suspension was adjusted to approximately pH 6.8 with HCl, and glucose (final concentration of 2.5 mM) was immediately added to the cell suspension. The pH of the medium was recorded at 5-min intervals for 20 min using a SevenMulti S50-K pH meter (Mettler-Toledo, Greifensee, Switzerland) with a calibrated electrode (InLab 413, Mettler-Toledo) under constant stirring. Each experiment was repeated three times in an independent manner.

B1: human lactoferrin: Recombinant human apo-lactoferrin (hLf), 691 amino acid γ-core protein that inhibits microbial PM H+-ATPases; control (protein, UniProt P02788 20-710, looked up)
Lactotransferrin: GRRRSVQWCAVSQPEATKCFQWQRNMRKVRGPPVSCIKRDSPIQCIQAIAENRADAVTLDGGFIYEAGLAPYKLRPVAAEVYGTERQPRTHYYAVAVVKKGGSFQLNELQGLKSCHTGLRRTAGWNVPIGTLRPFLNWTGPPEPIEAAVARFFSASCVPGADKGQFPNLCRLCAGTGENKCAFSSQEPYFSYSGAFKCLRDGAGDVAFIRESTVFEDLSDEAERDEYELLCPDNTRKPVDKFKDCHLARVPSHAVVARSVNGKEDAIWNLLRQAQEKFGKDKSPKFQLFGSPSGQKDLLFKDSAIGFSRVPPRIDSGLYLGSGYFTAIQNLRKSEEEVAARRARVVWCAVGEQELRKCNQWSGLSEGSVTCSSASTTEDCIALVLKGEADAMSLDGGYVYTAGKCGLVPVLAENYKSQQSSDPDPNCVDRPVEGYLAVAVVRRSDTSLTWNSVKGKKSCHTAVDRTAGWNIPMGLLFNQTGSCKFDEYFSQSCAPGSDPRSNLCALCIGDEQGENKCVPNSNERYYGYTGAFRCLAENAGDVAFVKDVTVLQNTDGNNNEAWAKDLKLADFALLCLDGKRKPVTEARSCHLAMAPNHAVVSRMDKVERLKQVLLHQQAKFGRNGSDCPDKFCLFQSETKNLLFNDNTECLARLHGKTTYEKYLGPQYVAGITNLKKCSTSPLLEACEFLRK
modifications: apo form
notes: control
Cell death inhibitors, intracellular: Azide ([1]; 24 (HNP-1), 20 (hBD-2, hBD-3), 34 (lactoferrin)): No | Antimicrobial range ([1]; Gm+ Gram-positive bacteria, Gm− Gram-negative bacteria, F fungi, V viruses, P protozoa, no reference given): Gm +,Gm −,F,V,P | Cell death inhibitors, extracellular: Tok1p inhibitors (TEA) [1]: Yes | Cell death inhibitors, intracellular: Oligomycin A [1]: Yes | Cell death inhibitors, intracellular: Piericidin A [1]: Yes | Partial K^+-efflux [1]: Yes | Membrane permeabilization ([1]; ref 14 (HNP-1), 23 (HNP-4), Yes 11, 13 / No 20 (hBD-2), No 20 / Yes 11 (hBD-3), 31, 34, 42 (lactoferrin)): No | Cell death inhibitors, extracellular: Ca^2+ or Mg^2+ ([1]; ref 24 (HNP-1), 20 (hBD-2, hBD-3), 43 (lactoferrin)): Yes | Cell death inhibitors, intracellular: CCCP or DNP ([1]; ref 24 (HNP-1), 34 (lactoferrin)): Yes | Cell death inhibitors, extracellular: Anoxia ([1]; ref 24 (HNP-1), 34, 35 (lactoferrin)): Yes | Membrane depolarization ([1]; ref 26 (HNP-1), 12 (HNP-4), 11 (hBD-2, hBD-3), 43, 67 (lactoferrin)): Yes | ATP increment ([1]; ref 47 (HNP-1), 35 (lactoferrin)): Yes | Cell death inhibitors, extracellular: K^+ or Na^+ ([1]; ref 68 (HNP-1), 69 (HNP-4), 20 (hBD-2), No 11, 12 / Yes 20 (hBD-3), 31, 36, 43 (lactoferrin)): Yes | K^+-efflux pattern in C. albicans (C. albicans cells): partial K^+-efflux | Inhibition of H^+-extrusion (yeast) (Pma1p H^+-ATPase): Yes
